PMC4232046, “The Janus transcription factor HapX controls fungal adaptation to both iron starvation and iron excess”

Biological target: HapX(24-158) (Aspergillus fumigatus, UniProt Q4WER3 24-158)
Experiment: SPR; HapX alone, no CBC; SPR Biacore T200, 25 C; 10 mM phosphate pH 7.4, 2.7 mM KCl, 137 mM NaCl, 1 mM DTT, 0.005% surfactant P20, 10 ug/ml poly(dI-dC); biotin-DNA on streptavidin CM3 chip
Settings: protein: recombinant; tags: MBP fusion cleaved with TEV; extended N-terminus with TEV site; chain copies: 2; label: 5' biotin on strand 1; blunt

HapX(24-158), sequence (Q4WER3 24-158): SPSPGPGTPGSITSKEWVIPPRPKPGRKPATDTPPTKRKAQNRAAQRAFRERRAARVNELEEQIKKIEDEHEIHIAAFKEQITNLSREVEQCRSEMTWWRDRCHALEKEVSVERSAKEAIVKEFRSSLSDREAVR

B1: cccAp-369-37 (dsDNA)
DNA 1: AAATCCACCAATCAACGCCTCCGTGATTGTCAGCAAT
DNA 2: ATTGCTGACAATCACGGAGGCGTTGATTGGTGGATTT
Q: With B1 as the binder, how does the Kd read?
A: Its Kd is 171 nM.
